Experiment [1] concerns primary BCE cells. Briefly: dose response study Pep2, chemotaxis of BCE cells. In kind it is cell-based, bovine. As to conditions: 20, 50 or 100 ng/ml, FGF-2 10 ng/ml, Zn2+-acetate. Here is the method:
A migration assay was performed in a modified Boyden chamber as described earlier (Auerbach et al., 1991) using micropore polycarbonate filters (8 μm thick, 8 μm pore) coated with type-1 collagen solution at 100 μg/ml (Vitrogen 100, Collagen Corp). BCE Cells were trypsinised and resuspended at 7.5×10^5 cells/ml in Dulbecco's modified essential medium (Invitrogen) containing 0.25% BSA and Trasylol at 1000 KIE. The cell suspension was added in the upper chamber and FGF-2 (10 ng/ml), and/or peptide 2 (20, 50 or 100 ng/ml) in medium containing 0.25% BSA were added to the lower chamber. The peptides were dissolved in PBS containing a 10-fold molar excess (Zn:peptide) of Zn^2+-acetate. After 5 h at 37° C., cells that had migrated through the filter were stained with Giemsa and counted using an the Easy Image Analysis software. All samples were analysed in at least six wells for each treatment and at several separate occasions.

The subject of experiment [2] is primary BCE cells. The experiment can be described thus: comparative study pep2/pep3, chemotaxis. Type of experiment: cell-based, bovine. As to conditions: 50 ng/ml peptide, FGF-2 10 ng/ml, Zn2+-acetate. The method, then:
Primary endothelial cells were starved over night in 0.5% normal calf serum. A migration assay was performed in a modified Boyden chamber as described earlier (Auerbach et al., 1991) using micropore polycarbonate filters (8 μm thick, 8 μm pore) coated with type-1 collagen solution at 100 μg/ml (Vitrogen 100, Collagen Corp). Cells were trypsinized and resuspended at 7.5×10^5 cells/ml in Dulbecco's modified essential medium (Invitrogen) containing 0.25% BSA and Trasylol at 1000 KIE. The cell suspension was added in the upper chamber and FGF-2 (10 ng/ml), HRGP (100 ng/ml), peptide 2 or 3 (50 ng/ml) in medium containing 0.25% BSA were added to the lower chamber. The peptides were dissolved in PBS containing a 10-fold molar excess (Zn:peptide) of Zn^2+-acetate. After 5 h at 37° C., cells that had migrated through the filter were stained with Giemsa and counted using the Easy Image Analysis software. All samples were analyzed in at least six wells for each treatment. Results of the study are illustrated in FIG. 7.

For experiment [3], the system named is T241 fibrosarcoma cells. Briefly: animal study Pep2, fibrosarcoma tumour growth. Type of experiment: in vivo. The settings on record: 5 mg/kg/day s.c. daily, mice bearing fibrosarcoma. The method, then:
Tumour study: Female, 5 week old, C57BL6/J mice (Mollegard/Bomhultgard, Denmark) were injected with 0.5×10^6 T241 fibrosarcoma cells subcutaneously (s.c.) into the left flank. Animals carrying palpable tumours were randomised (n=5-10 animals/treatment group) and received treatment with vehicle (Zn-acetate in NaCl), 5 mg/kg/day of HIS1 (=full-length HRGP) or Pep2, in a volume of 100 microliters, given as s.c. injections daily, in the right flank. The tumours were measured with a caliper once a day, in a blind procedure, and volumes were calculated by the formula […]×width^2×length. When the tumours reached the upper limit of 2 cm^3, the mice were sacrificed. The animals were anesthetised with isoflurane (Forene; Abbott) during all manipulations.

The test system of experiment [4] is T241 fibrosarcoma cells. Briefly: fibrosarcoma tumour growth in mice (HRGP). In kind it is in vivo. The settings on record: 4 mg/kg/day s.c. daily, control PBS, 11 days. The method, then:
Animal work was carried out at the local animal facility and was approved by the Uppsala University board of animal experimentation and thus performed according to the UKCCCR guidelines for the welfare of animals in experimental neoplasia (Workman et al (1988)). The mice were anesthetized with isoflurane (Forene; Abbott) during all manipulations. Female, 5 week old, C57BL6/1 mice (Mollegard/Bomhultgard, Denmark) were injected with 0.5×10^6 T241 fibrosarcoma cells subcutaneously (s.c.) into the left flank. Animals carrying palpable tumours were randomized (n=7-10 animals/treatment group) and received treatment with vehicle (PBS), 4 mg/kg/day of pHRGP or 5 mg/kg/day of human IgG or His-HRGP, given as daily subcutaneous injections in the right flank. The tumours were measured with a caliper once a day, in a blind procedure, and volumes were calculated by the formula […]. When the tumours reached the upper limit of 2 cm^3, the mice were sacrificed. Three animals in each group were perfused with 4% paraformaldehyde in PBS pH 7.4. Tumours were embedded in paraffin according to standard histological procedures and sectioned at […] thickness.
C57/bl6 mice were inoculated subcutaneously with T241 fibrosarcoma cells on their left flank and when the tumours were palpable (after 4-6 days), a daily treatment was initiated with HRGP or control (PBS; FIG. 2A, or human IgG; FIG. 2B). Endostatin was included in one study for comparison (FIG. 2B). The treatment was given as subcutaneous injections in the right flank until the size of the control tumours reached the upper limit of […] (11 days; FIG. 2A, 14 days; FIG. 2B). Injections with both pHRGP (4 mg/kg/day) and His-HRGP (5 mg/kg/day) led to a drastic reduction in tumour growth and at the time of sacrifice, the size of the tumours was reduced by 67% (FIG. 2A) and 61% (FIG. 2B) respectively, compared to control-treated animals. Endostatin treatment (25 mg/kg/day) lacked significant inhibitory effect on tumour growth in this model (32% decrease).

Experiment [5] concerns chicken chorioallantoic membrane (CAM). The experiment can be described thus: chicken chorioallantoic membrane (CAM) angiogenesis assay. Type of experiment: in vivo. As to conditions: for growth factor-induced CAM angiogenesis (newly formed vessels): FGF-2 or VEGF-A 0.2 mg per filter, HRGP 3 mg per filter, three days. Here is the method:
The effect of HRGP on anglogenesis was tested in the chicken chorioallantoic membrane (CAM) assay.
The conditions for the chorioallantoic membrane (CAM) assay followed essentially a previously described procedure (Friedlander et al (1995), Dixelius et al, (2000)). FGF-2 (Boehringer Mannheim) and VEGF-A (Peprotech) was used at 0.2 mg per filter and purified pHRGP or rHRGP at 3 mg per filter. The treated CAM's were inspected in a light microscope and the score, from 0 (low) to 3 (high) was based on the number of vessel branch points. Average values for 5-6 embryos were recorded.
A filter disc soaked in vehicle or growth factor, with or without HRGP, was placed on top of the CAM in the vicinity of a large vessel and incubated for three days. Treatment of the CAM with growth factors, such as FGF-2, stimulated angiogenesis (FIG. 1C; Table 1).

In experiment [6] the test system is NIH 3T3 murine fibroblasts. The experiment can be described thus: chemotaxis assay in modified Boyden chamber, NIH 3T3 fibroblasts. In kind it is cell-based. The settings on record: 100 ng/ml HRGP. The method, then: (§1) The porcine aortic endothelial (PAE) cell line overexpressing FGF receptor-1 (FGFR-1) (Wennström et al 1992) was cultured in Ham's F12/10% fetal bovine serum (FCS) and NIH 3T3 murine fibroblasts were cultured in Dulbecco's modified medium (DMEM)/10% newborn calf serum (NCS). F12, DMEM and serum were bought from Life Technologies. Primary bovine adrenal cortex capillary endothelial (BCE) cells were cultured on gelatin-coated dishes in DMEM/10% NCS and 2 ng/ml FGF-2 (Boehringer Mannheim). For chemotaxis assays, both PAE and NIH 3T3 cells were serum-starved over night in 0.1% BSA and BCE cells in 0.5% NCS. Human embryonic kidney (HEK) 293-EBNA cells were cultured in DMEM/10% FCS. Approximately every second month they were given 0.25 mg/ml G418 (Calbiochem) to ensure positive selection of the EBNA-1 expressing cells.
A migration assay was performed in a modified Boyden chamber as described earlier (Auerbach et al., 1991) using micropore polycarbonate filters (8 μm thick, 8 μm pore) coated with type-1 collagen solution at 100 μg/ml (Vitrogen 100, Collagen Corp). […] After 5 h at 37° C., migrated cells were stained with Giemsa and counted using an image analysis software (Easy Image Analysis) from Tekno Optik AB, Sweden. All samples were analysed in at least six parallel wells for each treatment.

Experiment [7] deals with primary BCE cells. The experiment can be described thus: chemotaxis (migration) assay in modified Boyden chamber, BCE cells. In kind it is cell-based, bovine. The method, then:
as §1
A migration assay was performed in a modified Boyden chamber as described earlier (Auerbach et al., 1991) using micropore polycarbonate filters (8 μm thick, 8 μm pore) coated with type-1 collagen solution at 100 μg/ml (Vitrogen 100, Collagen Corp). BCE, PAE/FGFR-1 or NIH 3T3 cells were preincubated or not with HRGP (100 ng/ml) for 30 min, trypsinised and resuspended at a concentration of 7.5×10^5 cells/ml in Dulbecco's modified essential medium (Invitrogen) containing 0.25% BSA and Trasylol at 1000 KIE. FGF-2 and VEGF-A was used at 5 ng/ml, HRGP and the protein C inhibitor (PCI) at 100 ng/ml and BSA at 0.25%. After 5 h at 37° C., migrated cells were stained with Giemsa and counted using an image analysis software (Easy Image Analysis) from Tekno Optik AB, Sweden. All samples were analysed in at least six parallel wells for each treatment.

The values that follow come from patent US7662388B2, “Endogenous peptide and active subfragments thereof” (Innoventus Project AB, priority 2003, dated 2010).

For “Pep2: amino acid subfragment of 35 amino acids, amino acids 330-364 of mature human HRGP (DLHPHKHHSHEQHPHGHHPHAHHPHEHDTHRQHPH; listed as Homo sapiens)”, the “FGF-2-induced chemotaxis of primary BCE cells, dose response” value in the experiment with primary BCE cells [1] is given as “dose-dependently inhibited”. Further, in the experiment with primary BCE cells [2], the “FGF-2-induced chemotaxis of primary BCE cells” value is “inhibited”. Besides, the “tumour growth (tumour volume)” value in the experiment with T241 fibrosarcoma cells [3] is given as “inhibits tumor growth”.

On to “Pep3: 25 amino acid subfragment of the central region, amino acids 365-389 of mature human HRGP, described in WO02/064621 (GHHPHGHHPHGHHPHGHHPHGHHPH; listed as Homo sapiens) [reference compound]”, for which the “FGF-2-induced chemotaxis of primary BCE cells” value with primary BCE cells [2] (listed as SEQ.ID.NO:4) is “not to be active for inhibiting angiogenesis”.

B1: pHRGP: HRGP purified from human plasma (protein)
chain: VSPTDCSAVEPEAEKALDLINKRRRDGYLFQLLRIADAHLDRVENTTVYYLVLDVQESDCSVLSRKYWNDCEPPDSRRPSEIVIGQCKVIATRHSHESQDLRVIDFNCTTSSVSSALANTKDSPVLIDFFEDTERYRKQANKALEKYKEENDDFASFRVDRIERVARVRGGEGTGYFVDFSVRNCPRHHFPRHPNVFGFCRADLFYDVEALDLESPKNLVINCEVFDPQEHENINGVPPHLGHPFHWGGHERSSTTKPPFKPHGSRDHHHPHKPHEHGPPPPPDERDHSHGPPLPQGPPPLLPMSCSSCQHATFGTNGAQRHSHNNNSSDLHPHKHHSHEQHPHGHHPHAHHPHEHDTHRQHPHGHHPHGHHPHGHHPHGHHPHGHHPHCHDFQDYGPCDPPPHNQGHCCHGHGPPPGHLRRRGPGKGPRPFHCRQIGSVYRLPPLRKGEVLPLPEANFPSFPLPHHKHPLKPDNQPFPQSVSESCPGKFKSGFPQVSMFFTHTFPK
Take B1: the “reduction of tumour size compared to control-treated animals at sacrifice” value in the experiment with T241 fibrosarcoma cells [4] stood at 67%. In experiment [5], the “growth factor-induced CAM angiogenesis (newly formed vessels)” value was “efficient suppression of newly formed vessels”. In experiment [5] (FGF-2 or VEGF-A together with pHRGP, 3 mg per filter), the “effect on pre-established vessels of the CAM” value is on record as “remained unaffected”.

B2: rHRGP: recombinant HRGP produced in HEK-293-EBNA cells without a His-tag (protein)
chain: VSPTDCSAVEPEAEKALDLINKRRRDGYLFQLLRIADAHLDRVENTTVYYLVLDVQESDCSVLSRKYWNDCEPPDSRRPSEIVIGQCKVIATRHSHESQDLRVIDFNCTTSSVSSALANTKDSPVLIDFFEDTERYRKQANKALEKYKEENDDFASFRVDRIERVARVRGGEGTGYFVDFSVRNCPRHHFPRHPNVFGFCRADLFYDVEALDLESPKNLVINCEVFDPQEHENINGVPPHLGHPFHWGGHERSSTTKPPFKPHGSRDHHHPHKPHEHGPPPPPDERDHSHGPPLPQGPPPLLPMSCSSCQHATFGTNGAQRHSHNNNSSDLHPHKHHSHEQHPHGHHPHAHHPHEHDTHRQHPHGHHPHGHHPHGHHPHGHHPHGHHPHCHDFQDYGPCDPPPHNQGHCCHGHGPPPGHLRRRGPGKGPRPFHCRQIGSVYRLPPLRKGEVLPLPEANFPSFPLPHHKHPLKPDNQPFPQSVSESCPGKFKSGFPQVSMFFTHTFPK
For B2, the “FGF-2-induced chemotaxis of NIH 3T3 murine fibroblasts” value in experiment [6] was “not affected”. Also, the “FCS-induced chemotaxis of BCE cells” value with primary BCE cells [7] (100 ng/ml HRGP) is listed as “not inhibited”. The “VEGF-A-induced chemotaxis of BCE cells” value in the experiment with primary BCE cells [7] (100 ng/ml HRGP, VEGF-A 5 ng/ml) is “attenuated”. Also, the “FGF-2-induced chemotaxis of BCE cells” value in the experiment with primary BCE cells [7] (100 ng/ml protein, FGF-2 5 ng/ml, 5 h) is “completely blocked”. Further, the “growth factor-induced CAM angiogenesis (newly formed vessels)” value in experiment [5] was “The same result was obtained”.
